From US8530235B2, “Medium that supports culture of an oocyte and modulation of granulosa cell apoptosis” (Adelaide Research & Innovation Pty Ltd., priority 2005, dated 2013)

Test system: mural granulosa cells
Test: Mural granulosa cell DNA synthesis, 3H-thymidine incorporation
Type: cell-based, marmoset monkey, Callithrix jacchus
Details: peri antral, small antral and large antral follicles; most notably small follicles, synergism with IGF1
Experimental: Mural GC from large antral follicles were cultured for 24h and thymidine incorporation was stimulated with 175 ng/ml GDF9. […] Bars/points represent means+/−SEM from 3 replicate experiments expressed as a fold change relative to control.
Follicles were manually excised and separated into 3 size classes: periantral (PA; 0.42-0.66 mm), small antral (SA; 0.66-1.5 mm) and large antral (LA; >1.5 mm). GCs from each follicle size were collected and pooled, then washed twice in bicarbonate-buffered tissue culture medium-199 (B-TCM) supplemented with 0.3 mg/ml of polyvinyl alcohol (PVA, Sigma). Depending on the individual experiments, mural GCs (1×10^5 cells/ml), hormones, inhibitors and media were added to wells of 96-well plates (Falcon) to give a final volume of 125 μl. Within each experiment, all treatments were carried out in at least duplicate wells and each experiment was replicated on at least 3 occasions. Cells were cultured in an atmosphere of 37° C., 96% humidity in 5% CO2 in air for 18 hours, followed by a further 6 hour pulse of 15.4 kBq tritiated thymidine (3H-thymidine, ICN) under the same conditions.
Seven adult female marmosets were primed with […] for 6 days, whole ovaries were removed on day 7, follicles manually excised, and GC were then collected from 3 size classes: periantral (PA; 0.42-0.66 mm), small antral (SA; 0.66-1.5 mm) and large antral (LA; >1.5 mm). Four different approaches were utilized to examine GDF9 function in GC. […] To examine the GDF9 signalling pathway, cultured GC from LA follicles were transfected with either a CAGA-luciferase or BRE-luciferase reporter construct and treated with various TGF-β superfamily growth factors or co-cultured with mouse oocytes. In order to determine the effects of GDF9 on marmoset GC proliferation, we employed a GC bioassay whereby after 24 h ^3H-thymidine incorporation is assessed as an indicator of DNA synthesis and cellular proliferation. […] In another experiment, GC were treated with an increasing dose of SB431542, an activin-like kinase (ALK) 4/5/7 inhibitor, in the presence of GDF9+/−IGF1.

B1: GDF-9: Recombinant mouse GDF-9 produced in-house in transfected 293H cells, partially purified by HIC (protein, UniProt Q07105 307-441, looked up)
Growth/differentiation factor …: GQKAIRSEAKGPLLTASFNLSEYFKQFLFPQNECELHDFRLSFSQLKWDNWIVAPHRYNPRYCKGDCPRAVRHRYGSPVHTMVQNIIYEKLDPSVPRPSCVPGKYSPLSVLTIEPDGSIAYKEYEDMIATRCTCR
- GC DNA synthesis: stimulates GC DNA synthesis in all follicle sizes
